For this assay, the target named is rPmMasSPH1 (His-tagged recombinant C-terminal SP-like domain of PmMasSPH1) (Penaeus monodon).

“rPmPPAE2 (His-tagged recombinant SP domain of PmPPAE2) (domain or fragment)”: the PGN-triggered PO activity of shrimp hemolymph in vitro (L-DOPA, change of A490 at 5 min), with 0.25 ug PGN and 1 uM of each recombinant protein, relative to hemolymph alone was found to be 102%.

The record behind these values is article PMC4372372.
